Measurements taken from doi:10.1101/2023.10.16.562450 (bioRxiv, 2023).
“And” between values parts separate entries of the source, which are not always exact repeats. Equal values may be shown once.

B1: Fab 3G2 (Fab, V domains shown)
VH: EVQLLESGGGLIQPGGSLRLSCAASGLTVSNNYMNWVRQAPGKGLEWVSIIYSSGSTYYADSVKGRFTISRDTRKNTLYLQMHSLRVEDTAVYYCARERGWLDYWGQGTLVTVSS
VL: VIWMTQSPSSLSASVGDRVTITCRASQSVSSHLNWYQQKPGKAPKLLIYAVSSLQSGVPSRFSGGDSGTDFTLTIASLQPEDFATYYCQQTYTIPRTFGQGTKVEIK
B2: mAb 3G2 (IgG) (antibody, V domains shown)
VH: EVQLLESGGGLIQPGGSLRLSCAASGLTVSNNYMNWVRQAPGKGLEWVSIIYSSGSTYYADSVKGRFTISRDTRKNTLYLQMHSLRVEDTAVYYCARERGWLDYWGQGTLVTVSS
VL: VIWMTQSPSSLSASVGDRVTITCRASQSVSSHLNWYQQKPGKAPKLLIYAVSSLQSGVPSRFSGGDSGTDFTLTIASLQPEDFATYYCQQTYTIPRTFGQGTKVEIK
B3: Fab 4B8 (Fab, V domains shown)
VH: EVQLVESGGGLIQPGGSLRLSCAASGFTISSKYMSWVRQAPGKGLEWVSIIYSSGSTYYADSVKGRFTISRDISKNTLYLQMNSLRAEDTAVYYCASLGSGSAFGYWGQGTLVTVSS
VL: DIVMTQSPSSVSASVGDRVTITCRASQGISTWLAWYQQKPGKAPRLLIYAASSLQSGVPSRFSGSGSGTDFTLTISSLQPEDFATYYCQQANSFPFTFGPGTKVEIK
B4: mAb 4B8 (IgG) (antibody, V domains shown)
VH: EVQLVESGGGLIQPGGSLRLSCAASGFTISSKYMSWVRQAPGKGLEWVSIIYSSGSTYYADSVKGRFTISRDISKNTLYLQMNSLRAEDTAVYYCASLGSGSAFGYWGQGTLVTVSS
VL: DIVMTQSPSSVSASVGDRVTITCRASQGISTWLAWYQQKPGKAPRLLIYAASSLQSGVPSRFSGSGSGTDFTLTISSLQPEDFATYYCQQANSFPFTFGPGTKVEIK
B5: Fab 14G5 (Fab, V domains shown)
VH: QVQLVQSGAEVKKPGESLKISCKGSGYSFTSYWIGWVRQMPGKGLEWMGIIYPGDSDTRYSPSFQGQVTMSADRSISTAYLQWSSLKASDTAMYYCARSNVDGSTDYWGQGTLVTVSS
VL: SYELTQPPSVSVSPGQTARITCSGDALPKQYAFWYQQKPGQAPVLVIYKDSERPSGIPERFSGSSSGTTVTLTISGVQAEDEADYYCQSADSSDTYVPYVFGTGTKVTVL
B6: mAb 14G5 (IgG) (antibody, V domains shown)
VH: QVQLVQSGAEVKKPGESLKISCKGSGYSFTSYWIGWVRQMPGKGLEWMGIIYPGDSDTRYSPSFQGQVTMSADRSISTAYLQWSSLKASDTAMYYCARSNVDGSTDYWGQGTLVTVSS
VL: SYELTQPPSVSVSPGQTARITCSGDALPKQYAFWYQQKPGQAPVLVIYKDSERPSGIPERFSGSSSGTTVTLTISGVQAEDEADYYCQSADSSDTYVPYVFGTGTKVTVL
B7: Fab 4F10 (Fab, V domains shown)
VH: EVQLLESGPGLVKPSQTLSLTCTVSGGSISSGGYYWSWIRQHPGKGLEWIGYIYYSGSTYYNPSLKSRVAMSVDTSKNQFSLTLSSVTAADTAVYYCARAIDNFYDNSIWGQGTLVTVSS
VL: DIQMTQSPSSLSASVGDRVTIACRASQSITNFLNWYQQKPGKAPKLLIYAVSNLQSGVPSRFSGSGSGTDFTLTISSVRPEDFATYFCQQSYSPPYTFGQGTKVDIK
B8: mAb 4F10 (IgG) (antibody, V domains shown)
VH: EVQLLESGPGLVKPSQTLSLTCTVSGGSISSGGYYWSWIRQHPGKGLEWIGYIYYSGSTYYNPSLKSRVAMSVDTSKNQFSLTLSSVTAADTAVYYCARAIDNFYDNSIWGQGTLVTVSS
VL: DIQMTQSPSSLSASVGDRVTIACRASQSITNFLNWYQQKPGKAPKLLIYAVSNLQSGVPSRFSGSGSGTDFTLTISSVRPEDFATYFCQQSYSPPYTFGQGTKVDIK
B9: Fab 2E11 (Fab, V domains shown)
VH: SVELIESGGGVVQPGRSLRLSCAASGFTFSNYAMHWVRQAPGKGLEWVAFISYDGSNKYYADSVKGRFTISRDNSKNTLSLQMNSLRAEDTALYYCARVFNGYEGDYWGQGTLVTVSS
VL: LPVLTQPPSVSVSPGQTARITCSGDALPKKYAYWYQQKSGQAPVLVIYEDSKRPSGIPERFSGSSSGTMATLTISGAQVEDEADYYCYSTDSSGNLYVFGTGTKVTVL
B10: mAb 2E11 (IgG) (antibody, V domains shown)
VH: SVELIESGGGVVQPGRSLRLSCAASGFTFSNYAMHWVRQAPGKGLEWVAFISYDGSNKYYADSVKGRFTISRDNSKNTLSLQMNSLRAEDTALYYCARVFNGYEGDYWGQGTLVTVSS
VL: LPVLTQPPSVSVSPGQTARITCSGDALPKKYAYWYQQKSGQAPVLVIYEDSKRPSGIPERFSGSSSGTMATLTISGAQVEDEADYYCYSTDSSGNLYVFGTGTKVTVL

How the values were obtained:
[1] = molecular target: recombinant ZIKV sNS1 (full-length ZIKV NS1, residues 3-352, GZ02 strain) (Zika virus (GZ02 strain)); assay: negative staining EM
[2] = molecular target: recombinant ZIKV sNS1 (full-length ZIKV NS1, residues 3-352, GZ02 strain) (Zika virus, strain GZ02, UniProt A0A146CJG7, strain); assay: cryo-EM structure
[3] = molecular target: cell-surface ZIKV NS1 (Zika virus, strain ; stand-in …, UniProt A0A146CJG7); assay: flow cytometry on cells
[4] = molecular target: ZIKV-derived sNS1 (Zika virus, strain ; stand-in …, UniProt A0A146CJG7); assay: ELISA
[5] = molecular target: DENV4 NS1 (Dengue virus 4, strain ; …, UniProt P09866); assay: ELISA
[6] = molecular target: DENV2 NS1 (Dengue virus 2, strain ; …, UniProt P29990); assay: ELISA
Chain of DENV2 NS1 (P29990 776-1127): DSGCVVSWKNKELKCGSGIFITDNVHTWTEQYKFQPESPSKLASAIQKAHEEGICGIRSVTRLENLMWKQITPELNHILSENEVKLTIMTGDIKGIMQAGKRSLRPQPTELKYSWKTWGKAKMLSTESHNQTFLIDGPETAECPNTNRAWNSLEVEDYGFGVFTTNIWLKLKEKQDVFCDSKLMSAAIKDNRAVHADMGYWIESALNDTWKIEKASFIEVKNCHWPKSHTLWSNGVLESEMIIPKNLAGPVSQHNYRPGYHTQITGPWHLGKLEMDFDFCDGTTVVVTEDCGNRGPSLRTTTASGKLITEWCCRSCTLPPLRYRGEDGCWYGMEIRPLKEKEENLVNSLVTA

Chain of DENV4 NS1 (P09866 775-1126): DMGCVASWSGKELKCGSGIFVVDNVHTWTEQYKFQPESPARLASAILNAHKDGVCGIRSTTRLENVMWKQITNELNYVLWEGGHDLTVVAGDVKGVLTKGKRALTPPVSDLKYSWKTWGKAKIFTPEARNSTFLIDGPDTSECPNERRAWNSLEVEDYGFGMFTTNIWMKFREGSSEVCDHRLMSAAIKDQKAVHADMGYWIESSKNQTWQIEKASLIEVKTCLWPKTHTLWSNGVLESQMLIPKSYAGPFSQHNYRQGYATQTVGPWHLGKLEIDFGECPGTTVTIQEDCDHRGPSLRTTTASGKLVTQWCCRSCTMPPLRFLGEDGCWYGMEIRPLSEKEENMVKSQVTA

| Molecule | stoichiometry N [2] | percentage of cell staining at 10 ug/ml [3] [%] | Kd [4] [nM] | also measured |
| --- | --- | --- | --- | --- |
| recombinant ZIKV sNS1 (full-length ZIKV NS1, residues 3-352, GZ02 strain) (natural protein) | – | – | – | stoichiometry N [1]: 4 |
| B1 | 1 ratio Fab to NS1 and 4 copies of Fab fragment for each NS1 tetramer | – | – | – |
| B2 | – | 76 | 0.12 ± 0.02 | – |
| B3 | 1 ratio Fab to NS1 and 4 copies of Fab fragment for each NS1 tetramer | – | – | – |
| B4 | – | 70 | 0.8 ± 0.33 | – |
| B5 | 1 ratio Fab to NS1 | – | – | – |
| B6 | – | 63 | 0.15 ± 0.03 | – |
| B7 | 1 ratio Fab to NS1 | – | – | – |
| B8 | – | 58 | 0.06 ± 0.01 | binding result [5]: binds; binding result [6]: binds |
| B9 | 1 ratio Fab to NS1 | – | – | – |
| B10 | – | 59 | 0.22 ± 0.04 | – |
